Measurements from article PMC12246617, “Cryo-EM structures reveal the PP2A–B55α and Eya3 interaction that can be disrupted by a peptide inhibitor” (The Journal of Biological Chemistry, 2025).

Columns and labels:
PP2A–B55 [1] = settings: 6,8-difluoro-4-methylumbelliferyl phosphate substrate; cited from earlier work
Source text: It is not surprising that ARPP19 and FAM122A inhibit the PP2A–B55 phosphatase activity since these two proteins bind on the surface of both B55 and C subunits, blocking access to the active site on C subunit.

PP2A–B55 [2] = assay: Fluorescent phosphatase assay with OMFP substrate; format: biochemical, human; settings: three independent biological replicates
Procedure: We noted that the buffer condition we used in our assay (50 mM Tris [pH 7.5], 50 mM NaCl, 5 mM MgCl2, and 0.1 mM EDTA) is substantially different from that used by Padi et al. (30 mM Hepes [pH 7.0], 150 mM NaCl, 1 mM MnCl2, 1 mM DTT, 0.01% Triton X-100, and 0.1 mg/ml bovine serum albumin) ([46], [84]).
Figure 5 Eya3 NTD and B55i inhibit the phosphatase activity of PP2A–B55.A, the phosphatase activity of PP2A–B55 in the absence and presence of Eya3 NTD in a fluorescent phosphatase assay using OMFP as a substrate under our previous buffer conditions ([46]). […] RFU, relative fluorescence units; NTD, N-terminal domain; OMFP, 3-O-methylfluorescein phosphate. […]
FLAG-PP2A–B55 was expressed and purified from cells transfected with pCAG-FLAG-B55, using the same method as FLAG-hEya3. […] Proteins were analyzed by SDS-PAGE, and fractions containing the PP2A–B55α holoenzyme were pooled, concentrated, aliquoted, and stored at −80 °C.
PP2A–B55 holoenzyme (25 nM) with or without 1 μM Eya3 NTD in 30 mM Hepes (pH 7.0), 150 mM NaCl, 1 mM MnCl2, 1 mM DTT, 0.01% Triton X-100, 0.1 mg/ml bovine serum albumin was incubated at room temperature for 10 min. […] Fluorescent OMFP, corresponding to phosphatase activity, was read using a BioTek Synergy H1 plate reader (excitation at 485 nm and emission at 515 nm).

B55α (His-B55) = assay: Microscale thermophoresis (MST) binding of Eya3 to labeled His-B55; parameters: species or system human; settings: fluorescently labeled His-B55, vs Eya3 WT
Source text: We expressed and purified Eya3 protein from Escherichia coli and the His-B55α subunit from insect cells (Fig. S1). In the remainder of the article, we will use B55 to represent B55α for simplicity and PP2A–B55 to represent the holoenzyme containing the A, B55, and C subunits. We labeled His-B55 with the RED–Tris–NTA dye and carried out microscale thermophoresis (MST) experiments with increasing concentrations of Eya3.
The modeled Eya3 peptide (residues 65–86) interacts mostly with residues on blades 3 and 4 of the β-propeller on the B55 surface (including residues on the β2D and β3A loop, β3B and β3C loop, and β3D and β4A loop) and with residues on the α1 and α2 helix positioned above blade 5, as well as the α2 and β6A loop (Fig. 1F). In particular, residue H79^Eya3 forms pi–pi or pi–cation stacking with H179^B55 and a hydrogen bond with D197^B55 (Fig. 2A). […] Furthermore, Y77^Eya3 forms a hydrogen bond with the main chain carbonyl of L225^B55, and K75^Eya3 forms another hydrogen bond with Y337^B55 (Fig. 2, B and C). […] We expressed and purified Eya3 K75A, Y77A, and H79A mutant proteins from E. coli and carried out MST experiments with fluorescently labeled His-B55. […] While we were working on the structure of PP2A–B55 + Eya3, Padi et al. ([84]) published the cryo-EM structure of PP2A–B55 in complex with an Eya3 peptide (residues 62–108) on bioRxiv.
FLAG-hB55, FLAG-hEya3, GFP, and GFP-B55i were cloned into the pCAG vector; (GST)-mEya3 was cloned into pGEX-6p1; His-hB56γ1 was cloned into pGEX-4T1; and His-hB55 was cloned in pFASTbac, all using the NEBuilder HiFi DNA Assembly Cloning Kit (New England Biolabs). h and m represent human and mouse proteins, respectively.
GST-mEya3 and mutants were expressed in BL21 cells. Cells were lysed in lysis buffer containing 50 mM Tris (pH 7.5), 250 mM NaCl, 5% glycerol, 1 mM DTT, and protease inhibitor cocktail (PIC; Thermo Scientific). Lysis was done in ice with sonication using 4 × 45 s pulses with 2-min off periods. NaCl was brought up to 0.5 M using 5 M NaCl, and the lysate was centrifuged for 40 min at 18,000g. Supernatant was gravity-flown over glutathione resin twice. Resin was washed with 100 ml of lysis buffer. GST was cleaved with PreScission protease and eluted into lysis buffer. Eluates were pooled and concentrated with Amicon Ultra Centrifugal filters. Concentrated protein was separated on a pre-equilibrated S200 column for size-exclusion chromatography. Peaks were combined, concentrated again, aliquoted, and stored at −80 °C.
His-B55 was expressed in Hi5 cells. […]
His-B55 or His-B56γ1 labeled with […] (NanoTemper) was added to serial dilutions of mEya3 in PBS with 0.05% Tween-20. The samples were then read with a Monolith NT.115^Pico (NanoTemper) according to the manufacturer’s instructions.

[3] = test system: apparent S/T phosphatase activity of Eya3; settings: Eya3 mutant; cited from earlier work
Source text: The modeled Eya3 peptide (residues 65–86) interacts mostly with residues on blades 3 and 4 of the β-propeller on the B55 surface (including residues on the β2D and β3A loop, β3B and β3C loop, and β3D and β4A loop) and with residues on the α1 and α2 helix positioned above blade 5, as well as the α2 and β6A loop (Fig. 1F). In particular, residue H79^Eya3 forms pi–pi or pi–cation stacking with H179^B55 and a hydrogen bond with D197^B55 (Fig. 2A). […] Furthermore, Y77^Eya3 forms a hydrogen bon ...

| Molecule | phosphatase activity of PP2A–B55 in vitro (PP2A–B55 [1]) | binding between Eya3 and B55 (mutants) (B55α (His-B55)) | also measured |
| --- | --- | --- | --- |
| FAM122A: a protein inhibitor that binds to both the B and C subunits (protein, UniProt Q96E09 1-287, looked up) PPP2R1A-PPP2R2A-interacting …: MAQEKMELDLELPPGTGGSPAEGGGSGGGGGLRRSNSAPLIHGLSDTSPVFQAEAPSARRNSTTFPSRHGLLLPASPVRMHSSRLHQIKQEEGMDLINRETVHEREVQTAMQISHSWEESFSLSDNDVEKSASPKRIDFIPVSPAPSPTRGIGKQCFSPSLQSFVSSNGLPPSPIPSPTTRFTTRRSQSPINCIRPSVLGPLKRKCEMETEYQPKRFFQGITNMLSSDVAQLSDPGVCVSSDTLDGNSSSAGSSCNSPAKVSTTTDSPVSPAQAASPFIPLDELSSK | inhibit the phosphatase activity of PP2A–B55 in vitro | – | – |
| ARPP19: a protein inhibitor that binds to both the B and C subunits (protein, UniProt P56211 2-112, looked up) cAMP-regulated phosphoprotein …: SAEVPEAASAEEQKEMEDKVTSPEKAEEAKLKARYPHLGQKPGGSDFLRKRLQKGQKYFDSGDYNMAKAKMKNKQLPTAAPDKTEVTGDHIPTPQDLPQRKPSLVASKLAG | inhibit the phosphatase activity of PP2A–B55 in vitro | – | – |
| Eya3 NTD: Eya3 N-terminal domain protein (NTD, residues 1–250) (protein, UniProt Q99504 1-250, looked up, fragment) MEEEQDLPEQPVKKAKMQESGEQTISQVSNPDVSDQKPETSSLASNLPMSEEIMTCTDYIPRSSNDYTSQMYSAKPYAHILSVPVSETAYPGQTQYQTLQQTQPYAVYPQATQTYGLPPFGALWPGMKPESGLIQTPSPSQHSVLTCTTGLTTSQPSPAHYSYPIQASSTNASLISTSSTIANIPAAAVASISNQDYPTYTILGQNQYQACYPSSSFGVTGQTNSDAESTTLAATTYQSEKPSVMAPAPA | – | – | phosphatase activity of PP2A–B55 (Padi et al. buffer) (PP2A–B55 [2]; 25 nM PP2A–B55, 1 μM Eya3 NTD, 30 mM Hepes (pH 7.0), 150 mM NaCl, 1 mM MnCl2, 1 mM DTT, 0.01% Triton X-100, 0.1 mg/ml BSA, room temperature 10 min, then 37 °C 30 min, ex 485/em 515 nm): inhibits the phosphatase activity of PP2A–B55; phosphatase activity of PP2A–B55 (previous buffer) (PP2A–B55 [2]; buffer 50 mM Tris [pH 7.5], 50 mM NaCl, 5 mM MgCl2, 0.1 mM EDTA, with vs without Eya3 NTD): increases the phosphatase activity of PP2A–B55 |
| K75A: Eya3 K75A mutant protein from E. coli (protein, UniProt Q99504 1-573, looked up, variant K75A) Protein phosphatase EYA3: MEEEQDLPEQPVKKAKMQESGEQTISQVSNPDVSDQKPETSSLASNLPMSEEIMTCTDYIPRSSNDYTSQMYSAAPYAHILSVPVSETAYPGQTQYQTLQQTQPYAVYPQATQTYGLPPFGALWPGMKPESGLIQTPSPSQHSVLTCTTGLTTSQPSPAHYSYPIQASSTNASLISTSSTIANIPAAAVASISNQDYPTYTILGQNQYQACYPSSSFGVTGQTNSDAESTTLAATTYQSEKPSVMAPAPAAQRLSSGDPSTSPSLSQTTPSKDTDDQSRKNMTSKNRGKRKADATSSQDSELERVFLWDLDETIIIFHSLLTGSYAQKYGKDPTVVIGSGLTMEEMIFEVADTHLFFNDLEECDQVHVEDVASDDNGQDLSNYSFSTDGFSGSGGSGSHGSSVGVQGGVDWMRKLAFRYRKVREIYDKHKSNVGGLLSPQRKEALQRLRAEIEVLTDSWLGTALKSLLLIQSRKNCVNVLITTTQLVPALAKVLLYGLGEIFPIENIYSATKIGKESCFERIVSRFGKKVTYVVIGDGRDEEIAAKQHNMPFWRITNHGDLVSLHQALELDFL | – | significantly reduce the binding between Eya3 and B55 | – |
| Y77A: Eya3 Y77A mutant protein from E. coli (protein, UniProt Q99504 1-573, looked up, variant Y77A) Protein phosphatase EYA3: MEEEQDLPEQPVKKAKMQESGEQTISQVSNPDVSDQKPETSSLASNLPMSEEIMTCTDYIPRSSNDYTSQMYSAKPAAHILSVPVSETAYPGQTQYQTLQQTQPYAVYPQATQTYGLPPFGALWPGMKPESGLIQTPSPSQHSVLTCTTGLTTSQPSPAHYSYPIQASSTNASLISTSSTIANIPAAAVASISNQDYPTYTILGQNQYQACYPSSSFGVTGQTNSDAESTTLAATTYQSEKPSVMAPAPAAQRLSSGDPSTSPSLSQTTPSKDTDDQSRKNMTSKNRGKRKADATSSQDSELERVFLWDLDETIIIFHSLLTGSYAQKYGKDPTVVIGSGLTMEEMIFEVADTHLFFNDLEECDQVHVEDVASDDNGQDLSNYSFSTDGFSGSGGSGSHGSSVGVQGGVDWMRKLAFRYRKVREIYDKHKSNVGGLLSPQRKEALQRLRAEIEVLTDSWLGTALKSLLLIQSRKNCVNVLITTTQLVPALAKVLLYGLGEIFPIENIYSATKIGKESCFERIVSRFGKKVTYVVIGDGRDEEIAAKQHNMPFWRITNHGDLVSLHQALELDFL | – | significantly reduce the binding between Eya3 and B55 | apparent S/T phosphatase activity of Eya3 [3]: abolish the apparent S/T phosphatase activity of Eya3 |
